Results taken from patent US20020049303.

What was measured:
[1] = target: T1, synthetic peptide PS1-gamma LVNMAEGD
T1 chain: LVNMAEGD

[2] = target: T2, peptide from the processing site of presenilin 1 SVNM/AEGD
T2 chain: SVNMAEGD

[3] = target: T3, synthetic peptide from the APP beta-secretase site SEVKM/DAEFR
T3 chain: SEVKMDAEFR

[4] = target: T4, synthetic peptide NCH-gamma VGSGVLLSRK
T4 chain: VGSGVLLSRK

[5] = target: recombinant pro-memapsin 2 (pro-M2pd)
[6] = target: oxidized bovine insulin B chain, P01317
Chain of oxidized bovine insulin B chain, P01317 (P01317 25-54): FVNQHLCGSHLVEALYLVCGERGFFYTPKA

[7] = target: T5, synthetic peptide from the APP beta-secretase site with the Swedish mutation SEVNL/DAEFR
T5 chain: SEVNLDAEFR

Chain of recombinant pro-memapsin 2 (pro-M2pd) (chain, as listed by the source): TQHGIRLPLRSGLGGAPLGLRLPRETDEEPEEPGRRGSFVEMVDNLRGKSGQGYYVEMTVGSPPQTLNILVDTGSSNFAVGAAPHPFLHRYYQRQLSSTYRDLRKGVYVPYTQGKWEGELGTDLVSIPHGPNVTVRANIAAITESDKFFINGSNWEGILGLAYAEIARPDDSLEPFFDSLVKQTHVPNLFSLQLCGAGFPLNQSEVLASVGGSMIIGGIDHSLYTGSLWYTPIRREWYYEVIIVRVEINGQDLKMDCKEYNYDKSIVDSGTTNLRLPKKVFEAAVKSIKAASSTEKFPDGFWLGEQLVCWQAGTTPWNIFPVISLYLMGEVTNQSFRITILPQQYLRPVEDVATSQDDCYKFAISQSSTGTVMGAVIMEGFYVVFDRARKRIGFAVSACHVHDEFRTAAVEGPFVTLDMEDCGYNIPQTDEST

B1: recombinant memapsin 2 (M2pd), auto-activated from pro-M2pd at pH 4.0 (protein)
chain: GIRLPLRSGLGGAPLGLRLPRETDEEPEEPGRRGSFVEMVDNLRGKSGQGYYVEMTVGSPPQTLNILVDTGSSNFAVGAAPHPFLHRYYQRQLSSTYRDLRKGVYVPYTQGKWEGELGTDLVSIPHGPNVTVRANIAAITESDKFFINGSNWEGILGLAYAEIARPDDSLEPFFDSLVKQTHVPNLFSLQLCGAGFPLNQSEVLASVGGSMIIGGIDHSLYTGSLWYTPIRREWYYEVIIVRVEINGQDLKMDCKEYNYDKSIVDSGTTNLRLPKKVFEAAVKSIKAASSTEKFPDGFWLGEQLVCWQAGTTPWNIFPVISLYLMGEVTNQSFRITILPQQYLRPVEDVATSQDDCYKFAISQSSTGTVMGAVIMEGFYVVFDRARKRIGFAVSA
- hydrolytic sites (HPLC and mass spectrometry) [1]: A single cleavage site was observed in synthetic peptide PS1-gamma
- Km [2]: Km, 15.2 mM
- kcat [2]: kcat, 0.67 s^-1
- kcat/Km [2]: kcat/Km, 43.8 s^-1M^-1
- hydrolysis (Native proteins): Native proteins were not cleaved by M2pd
- kcat/Km [3]: kcat/Km, 39.9 s^-1M^-1
- hydrolytic sites (HPLC and mass spectrometry) [4]: Three hydrolytic sites were identified from peptide NCH-gamma
- self-cleavage sites [5]: M^2pd cleaved its pro peptide (2 sites) and the protease portion (2 sites) during a 16 h incubation after activation
- hydrolytic sites (HPLC and mass spectrometry) [6]: Two hydrolytic sites were identified on oxidized insulin B-chain
- Km [7]: Km, 1 mM
- fold increase of kcat/Km over native APP [7]: 60-fold increase of kcat/Km over that for native APP
- kcat [7]: tcat, 2.45 s^-1
- kcat/Km [7]: kcat/Km, 2450 s^-1M^-1
